US20200002434A1 (BIOSION, published 2020)

Target: T1, recombinant human ErbB2 extracellular domain (ErbB2-ECD) (human, UniProt P04626 23-652)
T1 construct: extracellular domain; Coated on plates or used biotin-labeled in solution (capture ELISA); also called Human ErbB2-ECD; rhErbB2
Assay: capture ELISA, recombinant ErbB2-ECD

Binder | EC50
5G9.v1 humanized antibody (antibody, V domains shown, VH.v1/VL.v1, back mutations 0/0) VH: EVQLVQSGAEVKKPGSSVKVSCKTSGYTFSSYTIHWVRQAPGQGLEWIGYINPSSDYTAYNQKFRDRATLTADQSTNTAYMELSSLRSEDTAVYYCARASAFSLDFWGQGTLVTVSS VL: DIQMTQSPSSLSASVGDRVTITCKASHDIDRYIAWYQHKPGKGPKLLIHYTSTLQPGIPSRFSGSGSGRDYTLTISSLQPEDVATYYCLNYDNLLWTFGQGTKVEIK | 0.031 nM
5G9.v4 humanized antibody (antibody, V domains shown, VH.v1/VL.3, back mutations 0/H49Y) VH: EVQLVQSGAEVKKPGSSVKVSCKTSGYTFSSYTIHWVRQAPGQGLEWIGYINPSSDYTAYNQKFRDRATLTADQSTNTAYMELSSLRSEDTAVYYCARASAFSLDFWGQGTLVTVSS VL: DIQMTQSPSSLSASVGDRVTITCKASHDIDRYIAWYQHKPGKGPKLLIYYTSTLQPGIPSRFSGSGSGRDYTLTISSLQPEDVATYYCLNYDNLLWTFGQGTKVEIK | 0.072 nM
5G9.v2 humanized antibody (antibody, V domains shown, VH.v1/VL.1, back mutations 0/H38Q) VH: EVQLVQSGAEVKKPGSSVKVSCKTSGYTFSSYTIHWVRQAPGQGLEWIGYINPSSDYTAYNQKFRDRATLTADQSTNTAYMELSSLRSEDTAVYYCARASAFSLDFWGQGTLVTVSS VL: DIQMTQSPSSLSASVGDRVTITCKASHDIDRYIAWYQQKPGKGPKLLIHYTSTLQPGIPSRFSGSGSGRDYTLTISSLQPEDVATYYCLNYDNLLWTFGQGTKVEIK | 0.062 nM
5G9.v9 humanized antibody (antibody, V domains shown, VH.2/VL.v1, back mutations L69I/0) VH: EVQLVQSGAEVKKPGSSVKVSCKTSGYTFSSYTIHWVRQAPGQGLEWIGYINPSSDYTAYNQKFRDRATITADQSTNTAYMELSSLRSEDTAVYYCARASAFSLDFWGQGTLVTVSS VL: DIQMTQSPSSLSASVGDRVTITCKASHDIDRYIAWYQHKPGKGPKLLIHYTSTLQPGIPSRFSGSGSGRDYTLTISSLQPEDVATYYCLNYDNLLWTFGQGTKVEIK | 0.054 nM
5G9.v6 humanized antibody (antibody, V domains shown, VH.v1/VL.5, back mutations 0/R69T) VH: EVQLVQSGAEVKKPGSSVKVSCKTSGYTFSSYTIHWVRQAPGQGLEWIGYINPSSDYTAYNQKFRDRATLTADQSTNTAYMELSSLRSEDTAVYYCARASAFSLDFWGQGTLVTVSS VL: DIQMTQSPSSLSASVGDRVTITCKASHDIDRYIAWYQHKPGKGPKLLIHYTSTLQPGIPSRFSGSGSGTDYTLTISSLQPEDVATYYCLNYDNLLWTFGQGTKVEIK | 0.044 nM
5G9.v3 humanized antibody (antibody, V domains shown, VH.v1/VL.2, back mutations 0/G43V) VH: EVQLVQSGAEVKKPGSSVKVSCKTSGYTFSSYTIHWVRQAPGQGLEWIGYINPSSDYTAYNQKFRDRATLTADQSTNTAYMELSSLRSEDTAVYYCARASAFSLDFWGQGTLVTVSS VL: DIQMTQSPSSLSASVGDRVTITCKASHDIDRYIAWYQHKPGKVPKLLIHYTSTLQPGIPSRFSGSGSGRDYTLTISSLQPEDVATYYCLNYDNLLWTFGQGTKVEIK | 0.023 nM

More lines, now with the values ahead:

EC50 | Binder
0.053 nM | 5G9.v7 humanized antibody (antibody, V domains shown, VH.v1/VL.6, back mutations 0/Y71F) VH: EVQLVQSGAEVKKPGSSVKVSCKTSGYTFSSYTIHWVRQAPGQGLEWIGYINPSSDYTAYNQKFRDRATLTADQSTNTAYMELSSLRSEDTAVYYCARASAFSLDFWGQGTLVTVSS VL: DIQMTQSPSSLSASVGDRVTITCKASHDIDRYIAWYQHKPGKGPKLLIHYTSTLQPGIPSRFSGSGSGRDFTLTISSLQPEDVATYYCLNYDNLLWTFGQGTKVEIK
0.029 nM | 5G9.v10 humanized antibody (antibody, V domains shown, VH.3/VL.v1, back mutations Q73K/0) VH: EVQLVQSGAEVKKPGSSVKVSCKTSGYTFSSYTIHWVRQAPGQGLEWIGYINPSSDYTAYNQKFRDRATLTADKSTNTAYMELSSLRSEDTAVYYCARASAFSLDFWGQGTLVTVSS VL: DIQMTQSPSSLSASVGDRVTITCKASHDIDRYIAWYQHKPGKGPKLLIHYTSTLQPGIPSRFSGSGSGRDYTLTISSLQPEDVATYYCLNYDNLLWTFGQGTKVEIK
0.081 nM | 5G9.v11 humanized antibody (antibody, V domains shown, VH.4/VL.v1, back mutations N76S/0) VH: EVQLVQSGAEVKKPGSSVKVSCKTSGYTFSSYTIHWVRQAPGQGLEWIGYINPSSDYTAYNQKFRDRATLTADQSTSTAYMELSSLRSEDTAVYYCARASAFSLDFWGQGTLVTVSS VL: DIQMTQSPSSLSASVGDRVTITCKASHDIDRYIAWYQHKPGKGPKLLIHYTSTLQPGIPSRFSGSGSGRDYTLTISSLQPEDVATYYCLNYDNLLWTFGQGTKVEIK
0.165 nM | 5G9.v8 humanized antibody (antibody, V domains shown, VH.1/VL.v1, back mutations A67V/0) VH: EVQLVQSGAEVKKPGSSVKVSCKTSGYTFSSYTIHWVRQAPGQGLEWIGYINPSSDYTAYNQKFRDRVTLTADQSTNTAYMELSSLRSEDTAVYYCARASAFSLDFWGQGTLVTVSS VL: DIQMTQSPSSLSASVGDRVTITCKASHDIDRYIAWYQHKPGKGPKLLIHYTSTLQPGIPSRFSGSGSGRDYTLTISSLQPEDVATYYCLNYDNLLWTFGQGTKVEIK
0.029 nM | 5G9.v12 humanized antibody (antibody, V domains shown, VH.5/VL.v1, back mutations I48M/0) VH: EVQLVQSGAEVKKPGSSVKVSCKTSGYTFSSYTIHWVRQAPGQGLEWMGYINPSSDYTAYNQKFRDRATLTADQSTNTAYMELSSLRSEDTAVYYCARASAFSLDFWGQGTLVTVSS VL: DIQMTQSPSSLSASVGDRVTITCKASHDIDRYIAWYQHKPGKGPKLLIHYTSTLQPGIPSRFSGSGSGRDYTLTISSLQPEDVATYYCLNYDNLLWTFGQGTKVEIK
0.013 nM | 5G9.v5 humanized antibody (antibody, V domains shown, VH.v1/VL.4, back mutations 0/I58V) VH: EVQLVQSGAEVKKPGSSVKVSCKTSGYTFSSYTIHWVRQAPGQGLEWIGYINPSSDYTAYNQKFRDRATLTADQSTNTAYMELSSLRSEDTAVYYCARASAFSLDFWGQGTLVTVSS VL: DIQMTQSPSSLSASVGDRVTITCKASHDIDRYIAWYQHKPGKGPKLLIHYTSTLQPGVPSRFSGSGSGRDYTLTISSLQPEDVATYYCLNYDNLLWTFGQGTKVEIK

Target: T1, recombinant human ErbB2 extracellular …
Assay: capture ELISA, recombinant ErbB2-ECD
Remark: another data set of the same source

Binder | EC50
5F12.v3 humanized antibody (antibody, V domains shown, VH.v1/VL.2, back mutations 0/G43A) VH: EVQLVQSGAEVKKPGSSVKVSCKASGYTFTSYTMHWIRQAPGQGLEWIGYINPSSSYTNYNQNFKDRATLTADKSTSTAYMELSSLRSEDTAVYYCARASSYSLDYWGQGTLVTVSS VL: DIQMTQSPSSLSASVGDRVTITCKASQDINKYIAWYQHKPGKAPKLLIHSTSTLYPGIPSRFSGSGSGKDYTFTISSLQPEDIATYYCLQYDNLLWTFGQGTKVEIK | 0.026 nM
5F12.v9 humanized antibody (antibody, V domains shown, VH.2/VL.v1, back mutations I48M/0) VH: EVQLVQSGAEVKKPGSSVKVSCKASGYTFTSYTMHWIRQAPGQGLEWMGYINPSSSYTNYNQNFKDRATLTADKSTSTAYMELSSLRSEDTAVYYCARASSYSLDYWGQGTLVTVSS VL: DIQMTQSPSSLSASVGDRVTITCKASQDINKYIAWYQHKPGKGPKLLIHSTSTLYPGIPSRFSGSGSGKDYTFTISSLQPEDIATYYCLQYDNLLWTFGQGTKVEIK | 0.023 nM
5F12.v7 humanized antibody (antibody, V domains shown, VH.v1/VL.6, back mutations 0/Y71F) VH: EVQLVQSGAEVKKPGSSVKVSCKASGYTFTSYTMHWIRQAPGQGLEWIGYINPSSSYTNYNQNFKDRATLTADKSTSTAYMELSSLRSEDTAVYYCARASSYSLDYWGQGTLVTVSS VL: DIQMTQSPSSLSASVGDRVTITCKASQDINKYIAWYQHKPGKGPKLLIHSTSTLYPGIPSRFSGSGSGKDFTFTISSLQPEDIATYYCLQYDNLLWTFGQGTKVEIK | 0.152 nM

More lines, now with the values ahead:

EC50 | Binder
0.034 nM | 5F12.v2 humanized antibody (antibody, V domains shown, VH.v1/VL.1, back mutations 0/H38Q) VH: EVQLVQSGAEVKKPGSSVKVSCKASGYTFTSYTMHWIRQAPGQGLEWIGYINPSSSYTNYNQNFKDRATLTADKSTSTAYMELSSLRSEDTAVYYCARASSYSLDYWGQGTLVTVSS VL: DIQMTQSPSSLSASVGDRVTITCKASQDINKYIAWYQQKPGKGPKLLIHSTSTLYPGIPSRFSGSGSGKDYTFTISSLQPEDIATYYCLQYDNLLWTFGQGTKVEIK
0.018 nM | 5F12.v8 humanized antibody (antibody, V domains shown, VH.1/VL.v1, back mutations I37V/0) VH: EVQLVQSGAEVKKPGSSVKVSCKASGYTFTSYTMHWVRQAPGQGLEWIGYINPSSSYTNYNQNFKDRATLTADKSTSTAYMELSSLRSEDTAVYYCARASSYSLDYWGQGTLVTVSS VL: DIQMTQSPSSLSASVGDRVTITCKASQDINKYIAWYQHKPGKGPKLLIHSTSTLYPGIPSRFSGSGSGKDYTFTISSLQPEDIATYYCLQYDNLLWTFGQGTKVEIK
0.028 nM | 5F12.v11 humanized antibody (antibody, V domains shown, VH.4/VL.v1, back mutations L69I/0) VH: EVQLVQSGAEVKKPGSSVKVSCKASGYTFTSYTMHWIRQAPGQGLEWIGYINPSSSYTNYNQNFKDRATITADKSTSTAYMELSSLRSEDTAVYYCARASSYSLDYWGQGTLVTVSS VL: DIQMTQSPSSLSASVGDRVTITCKASQDINKYIAWYQHKPGKGPKLLIHSTSTLYPGIPSRFSGSGSGKDYTFTISSLQPEDIATYYCLQYDNLLWTFGQGTKVEIK
0.032 nM | 5F12.v10 humanized antibody (antibody, V domains shown, VH.3/VL.v1, back mutations A67V/0) VH: EVQLVQSGAEVKKPGSSVKVSCKASGYTFTSYTMHWIRQAPGQGLEWIGYINPSSSYTNYNQNFKDRVTLTADKSTSTAYMELSSLRSEDTAVYYCARASSYSLDYWGQGTLVTVSS VL: DIQMTQSPSSLSASVGDRVTITCKASQDINKYIAWYQHKPGKGPKLLIHSTSTLYPGIPSRFSGSGSGKDYTFTISSLQPEDIATYYCLQYDNLLWTFGQGTKVEIK
0.032 nM | 5F12.v6 humanized antibody (antibody, V domains shown, VH.v1/VL.5, back mutations 0/K69T) VH: EVQLVQSGAEVKKPGSSVKVSCKASGYTFTSYTMHWIRQAPGQGLEWIGYINPSSSYTNYNQNFKDRATLTADKSTSTAYMELSSLRSEDTAVYYCARASSYSLDYWGQGTLVTVSS VL: DIQMTQSPSSLSASVGDRVTITCKASQDINKYIAWYQHKPGKGPKLLIHSTSTLYPGIPSRFSGSGSGTDYTFTISSLQPEDIATYYCLQYDNLLWTFGQGTKVEIK
0.028 nM | 5F12.v5 humanized antibody (antibody, V domains shown, VH.v1/VL.4, back mutations 0/I58V) VH: EVQLVQSGAEVKKPGSSVKVSCKASGYTFTSYTMHWIRQAPGQGLEWIGYINPSSSYTNYNQNFKDRATLTADKSTSTAYMELSSLRSEDTAVYYCARASSYSLDYWGQGTLVTVSS VL: DIQMTQSPSSLSASVGDRVTITCKASQDINKYIAWYQHKPGKGPKLLIHSTSTLYPGVPSRFSGSGSGKDYTFTISSLQPEDIATYYCLQYDNLLWTFGQGTKVEIK
